The values that follow come from patent US20190025332A1.

Test [1] concerns the target wild type human MIC-1 (human) (UniProt Q99988). The test is described as follows: SPR blocking; wtMIC-1 mixed with 0.125 nM mIgG1, over immobilised mGFRAL(ECR)-Fab; RU of wtMIC-1 binding.
Test [2] has the same target. As to the kind of experiment: SPR blocking; wtMIC-1 mixed with 1 nM mIgG1, over immobilised mGFRAL(ECR)-Fab; RU of wtMIC-1 binding.
Test [3] has the same target. The test is described as follows: SPR blocking; wtMIC-1 mixed with 0.125 nM mIgG1, over immobilised hGFRAL(ECR)-Fab; RU of wtMIC-1 binding.
Test [4] shares this target. As to the kind of experiment: SPR blocking; wtMIC-1 mixed with 0.5 nM mIgG1, over immobilised mGFRAL(ECR)-Fab; RU of wtMIC-1 binding.
Test [5] has the same target. As to the kind of experiment: SPR blocking; wtMIC-1 mixed with 0 nM mIgG1, over immobilised hGFRAL(ECR)-Fab; RU of wtMIC-1 binding.
The target is the same in test [6]. As to the kind of experiment: SPR blocking; wtMIC-1 mixed with 2 nM mIgG1, over immobilised hGFRAL(ECR)-Fab; RU of wtMIC-1 binding.
The target is the same in test [7]. The test is described as follows: SPR blocking; wtMIC-1 mixed with 0.5 nM mIgG1, over immobilised hGFRAL(ECR)-Fab; RU of wtMIC-1 binding.
The target is the same in test [8]. The test is described as follows: SPR blocking; wtMIC-1 mixed with 4 nM mIgG1, over immobilised hGFRAL(ECR)-Fab; RU of wtMIC-1 binding.
Test [9] shares this target. As to the kind of experiment: SPR blocking; wtMIC-1 mixed with 8 nM mIgG1, over immobilised hGFRAL(ECR)-Fab; RU of wtMIC-1 binding.
For test [10] the target is unchanged. The test is described as follows: SPR blocking; wtMIC-1 mixed with 4 nM mIgG1, over immobilised mGFRAL(ECR)-Fab; RU of wtMIC-1 binding.
Test [11] has the same target. As to the kind of experiment: SPR blocking; wtMIC-1 mixed with 0 nM mIgG1, over immobilised mGFRAL(ECR)-Fab; RU of wtMIC-1 binding.
For test [12] the target is unchanged. As to the kind of experiment: SPR blocking; wtMIC-1 mixed with 8 nM mIgG1, over immobilised mGFRAL(ECR)-Fab; RU of wtMIC-1 binding.
For test [13] the target is unchanged. The test is described as follows: SPR blocking; wtMIC-1 mixed with 0.25 nM mIgG1, over immobilised hGFRAL(ECR)-Fab; RU of wtMIC-1 binding.
The target is the same in test [14]. As to the kind of experiment: SPR blocking; wtMIC-1 mixed with 0.25 nM mIgG1, over immobilised mGFRAL(ECR)-Fab; RU of wtMIC-1 binding.
Test [15] shares this target. The test is described as follows: SPR blocking; wtMIC-1 mixed with 2 nM mIgG1, over immobilised mGFRAL(ECR)-Fab; RU of wtMIC-1 binding.
Test [16] shares this target. As to the kind of experiment: SPR blocking; wtMIC-1 mixed with 1 nM mIgG1, over immobilised hGFRAL(ECR)-Fab; RU of wtMIC-1 binding.

Chain of wild type human MIC-1 (human) (Q99988 197-308 limits assumed): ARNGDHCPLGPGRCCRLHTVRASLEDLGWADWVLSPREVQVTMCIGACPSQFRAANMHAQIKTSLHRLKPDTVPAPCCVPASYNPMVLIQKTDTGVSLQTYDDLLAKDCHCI

Regarding isotype control (mIgG1) (antibody), the Response (RU) was determined as 55.3 RU in test [1]; 54.1 RU in test [2]; 58.4 RU in test [3]; 55 RU in [4]; 58.3 RU in test [5]; 60 RU in test [6]. The Response (RU) is 58.4 RU in test [7]; 59.1 RU in [8]; 59.4 RU in test [9]; 55.4 RU in test [10]; 55.6 RU in test [11]; 55.5 RU in [12]. In addition, the Response (RU) in test [13] was 59.4 RU; in [14], 54.6 RU; in test [15], 54.5 RU; in test [16], 59.3 RU.
